Measured values taken from PMC5137437.
Like-named read-outs stand apart in the source and are kept apart here.

Tests used:
Klf4 ZnF1-3 WT (E446) [1] = target: T1, Klf4 ZnF1-3 WT (E446) (Mus musculus, UniProt Q60793 396-483); experiment: fluorescence polarization
Klf4 ZnF1-3 E446P [2] = target: T2, Klf4 ZnF1-3 E446P (Mus musculus, UniProt Q60793 396-483, E446P); experiment: fluorescence polarization
Klf4 ZnF1-3 E446P [3] = target: T2, Klf4 ZnF1-3 E446P; experiment: fluorescence polarization; remark: listed apart in the source
Klf4 ZnF1-3 E446P [4] = target: T2, Klf4 ZnF1-3 E446P; experiment: X-ray crystallography
Klf4 ZnF1-3 WT (E446) [5] = target: T1, Klf4 ZnF1-3 WT (E446); experiment: X-ray crystallography
Klf4 ZnF1-3 WT (E446) [6] = target: T1, Klf4 ZnF1-3 WT (E446); experiment: X-ray crystallography; remark: listed apart in the source
Klf4 ZnF1-3 E446D = Klf4 ZnF1-3 E446D (Mus musculus, UniProt Q60793 396-483, E446D); experiment: X-ray crystallography
Chain of Klf4 ZnF1-3 E446D (Q60793 396-483 E446D): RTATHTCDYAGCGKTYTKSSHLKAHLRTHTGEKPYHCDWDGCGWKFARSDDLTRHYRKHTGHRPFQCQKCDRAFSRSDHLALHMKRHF

Klf4 ZnF1-3 E446P [7] = target: T2, Klf4 ZnF1-3 E446P; experiment: X-ray crystallography; remark: listed apart in the source
Klf4 ZnF1-3 WT (E446) [8] = target: T1, Klf4 ZnF1-3 WT (E446); experiment: fluorescence polarization; remark: listed apart in the source

T1 sequence (Q60793 396-483): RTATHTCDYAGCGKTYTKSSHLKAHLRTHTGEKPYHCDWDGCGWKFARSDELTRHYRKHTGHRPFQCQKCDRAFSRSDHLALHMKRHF
T2 sequence (Q60793 396-483 E446P): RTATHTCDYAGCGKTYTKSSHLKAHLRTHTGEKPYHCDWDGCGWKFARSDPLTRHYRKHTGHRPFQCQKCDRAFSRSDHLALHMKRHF

B1: 5mCpG hemimethylated FP probe (dsDNA)
DNA 1: GAGGCGTGGC
DNA 2: TTGCCACGCCTC
modifications: 5mC at position 5 of strand 1; strand 2 unmethylated
Klf4 ZnF1-3 WT (E446) [1]
  binding signal: 1.5 fold tighter than P1 with N1
Klf4 ZnF1-3 E446P [2]
  Kd: < 5 nM

B2: CpG unmodified FP probe (dsDNA)
DNA 1: GAGGCGTGGC
DNA 2: TTGCCACGCCTC
Klf4 ZnF1-3 E446P [3]
  binding signal: ~4 fold tighter than P1 with N1

B3: 5mCpG/5mCpG crystal duplex (dsDNA)
DNA 1: GAGGCGTGGC
DNA 2: GCCACGCCTC
modifications: 5mC at position 5 of strand 1 and position 5 of strand 2
Klf4 ZnF1-3 E446P [4]
  binding result: binds

B4: TpG/5mCpA crystal duplex (dsDNA)
DNA 1: GAGGTGTGGC
DNA 2: GCCACACCTC
modifications: 5mC at position 5 of strand 2
Klf4 ZnF1-3 WT (E446) [5]
  binding result: binds

B5: TpG/CpA crystal duplex (dsDNA)
DNA 1: GAGGTGTGGC
DNA 2: GCCACACCTC
Klf4 ZnF1-3 WT (E446) [6]
  binding result: binds

B6: CpG/CpG crystal duplex (dsDNA)
DNA 1: GAGGCGTGGC
DNA 2: GCCACGCCTC
Klf4 ZnF1-3 E446D
  binding result: binds

B7: TpG crystal duplex (E446P complex) (dsDNA)
DNA 1: GAGGTGTGGC
DNA 2: GCCACACCTC
modifications: methylation of the opposite-strand CpA not stated in the material
Klf4 ZnF1-3 E446P [7]
  binding result: binds

B8: TpG FP probe (dsDNA)
DNA 1: GAGGTGTGGC
DNA 2: TTGCCACACCTC
Klf4 ZnF1-3 WT (E446) [8]
  binding result: binds
